The data set deals with T1, LtrA (L1.LtrB group II intron-encoded protein) (Lactococcus lactis) (UniProt P0A3U0).
T1 sequence: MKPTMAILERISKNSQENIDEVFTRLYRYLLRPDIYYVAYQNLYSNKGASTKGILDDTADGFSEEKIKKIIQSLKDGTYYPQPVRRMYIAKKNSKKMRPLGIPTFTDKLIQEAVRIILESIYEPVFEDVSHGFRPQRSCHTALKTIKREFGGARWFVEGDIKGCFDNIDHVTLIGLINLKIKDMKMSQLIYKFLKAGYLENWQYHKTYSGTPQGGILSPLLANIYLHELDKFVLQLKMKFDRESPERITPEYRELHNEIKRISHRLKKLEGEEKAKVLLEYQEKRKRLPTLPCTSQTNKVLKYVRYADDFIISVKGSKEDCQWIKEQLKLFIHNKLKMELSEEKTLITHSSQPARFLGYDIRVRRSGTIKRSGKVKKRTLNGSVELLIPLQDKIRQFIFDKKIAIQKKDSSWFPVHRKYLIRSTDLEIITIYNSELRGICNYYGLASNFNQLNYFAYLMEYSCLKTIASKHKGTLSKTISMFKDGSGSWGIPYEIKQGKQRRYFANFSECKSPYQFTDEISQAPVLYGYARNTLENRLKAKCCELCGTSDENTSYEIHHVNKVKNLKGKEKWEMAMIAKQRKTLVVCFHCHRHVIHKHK
As to the kind of experiment: cell_activity. The conditions noted are these: for activity: after IPTG induction; for binding signal (mutability value): doped target pool selection.

activity, activity (% TetR colonies) and binding signal (mutability value) data for seven substances are collected here from patent US20030104352.

Where only a bound is given, the exact number is not on record here.

In the case of “retargeted L1.LtrB intron HIV1-4069s ; HIV-1 pol target 4069s”, the activity (also inserted in human cells (p89)) is > 60 % mobility.
“L1.LtrB deltaORF intron RNA ; L1.LtrB DNA target -30 to +15”: the activity (% TetR colonies) (100 uM IPTG, ~70% without IPTG) amounted to 100.
As for “L1.LtrB deltaORF intron RNA ; L1.LtrB target G-21A”, the binding signal (mutability value) ([10 (-21 G>A)]) is -0.6.
“L1.LtrB deltaORF intron RNA ; L1.LtrB target C-7A”: the binding signal (mutability value) ([24 (-7 C>A)], preferred over wild type) came out at 3.83.
As to “L1.LtrB deltaORF intron RNA ; L1.LtrB target G-21C”, the binding signal (mutability value) ([10 (-21 G>C)]) is -0.9.
As for “L1.LtrB deltaORF intron RNA ; L1.LtrB target G-21T”, the binding signal (mutability value) ([10 (-21 G>T)], absent from active sites) is -1.
In the case of “retargeted L1.LtrB intron HIV1-4021s ; HIV-1 proviral target 4021s”, the activity was > 60 % mobility.
